Consider 125 sequences from the supplement of paper PMC9112550, “Optimization of the antimicrobial peptide Bac7 by deep mutational scanning” (BMC Biology, 2022).

The test system of this data set is Escherichia coli TOP10. In words: shrunken log2 fold change of peptide-encoding DNA abundance (4.5 h post-induction vs induction); higher = less antimicrobial activity (less host growth inhibition). The following applies: time post-induction: 4.5 h; library: site-saturation at positions 5, 18, 19, 20.
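Further: peptides expressed intracellularly from a pBAD plasmid library in pooled LB shake-flask culture, induced with 0.3% L-arabinose, DNA abundance read by NGS, three biological replicates, DESeq2 with apeglm shrinkage.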

On to RRIRRRPPRLPRPRPRPWAWPRP, for which the “shrunken log2 fold change” value was 0.0216.

Turning to RRIRGRPPRLPRPRPRPITSPRP, the “shrunken log2 fold change” value was determined as 0.0724.

With RRIRERPPRLPRPRPRPSASPRP, the “shrunken log2 fold change” value was -0.13. RRIRARPPRLPRPRPRPTKDPRP: the “shrunken log2 fold change” value stood at 0.144. RRIRNRPPRLPRPRPRPAALPRP: the “shrunken log2 fold change” value worked out at 0.341. As for RRIRTRPPRLPRPRPRPEERPRP, the figure is 0.12. Regarding RRIRERPPRLPRPRPRPNHDPRP, the “shrunken log2 fold change” value was -0.551. With RRIRVRPPRLPRPRPRPIKFPRP, the “shrunken log2 fold change” value was determined as 0.0613. For the sequence RRIRYRPPRLPRPRPRPTKTPRP, the “shrunken log2 fold change” value was -0.0705.

Take RRIRLRPPRLPRPRPRPRGNPRP: the “shrunken log2 fold change” value was 0.0735. As for RRIRFRPPRLPRPRPRPNETPRP, the figure is -0.0424; as for RRIRNRPPRLPRPRPRPMNYPRP, -0.00918; as for RRIRGRPPRLPRPRPRPPYCPRP, 0.204. As for RRIRQRPPRLPRPRPRPYNKPRP, the “shrunken log2 fold change” value is -0.403. For RRIRERPPRLPRPRPRPAYFPRP the value was 0.019; for RRIRCRPPRLPRPRPRPCFPPRP, -0.321.

For RRIRQRPPRLPRPRPRPWPIPRP, the “shrunken log2 fold change” value is -0.152. Regarding RRIRVRPPRLPRPRPRPFWMPRP, the “shrunken log2 fold change” value amounted to 0.0403. In the case of RRIRWRPPRLPRPRPRPNFLPRP, the “shrunken log2 fold change” value was -0.308.

In the case of RRIRQRPPRLPRPRPRPMWYPRP, the “shrunken log2 fold change” value was -0.298. For RRIRCRPPRLPRPRPRPEMDPRP the value was 0.0321. Turning to RRIRMRPPRLPRPRPRPKGVPRP, the “shrunken log2 fold change” value stood at 1.1.

RRIRLRPPRLPRPRPRPEKAPRP: the “shrunken log2 fold change” value came out at 0.166. As for RRIRPRPPRLPRPRPRPQWYPRP, the figure is -0.257.

With RRIRHRPPRLPRPRPRPHCKPRP, the “shrunken log2 fold change” value was -0.0178.

For RRIRTRPPRLPRPRPRPCHLPRP, the “shrunken log2 fold change” value worked out at 0.0039.

On to RRIRIRPPRLPRPRPRPGHDPRP, for which the “shrunken log2 fold change” value is 0.144. RRIRDRPPRLPRPRPRPQTFPRP: the “shrunken log2 fold change” value came to 0.0361. For RRIRFRPPRLPRPRPRPATGPRP the value was 1.21; for RRIRQRPPRLPRPRPRPPTCPRP, 0.224; for RRIRQRPPRLPRPRPRPQHHPRP, -0.527. Regarding RRIRSRPPRLPRPRPRPACGPRP, the “shrunken log2 fold change” value was 0.436. For RRIRMRPPRLPRPRPRPGVFPRP the value was 0.858; for RRIRFRPPRLPRPRPRPLKWPRP, -0.13. As for RRIRCRPPRLPRPRPRPRVCPRP, the figure is 0.284; as for RRIRWRPPRLPRPRPRPKEMPRP, 0.476. For RRIRHRPPRLPRPRPRPDGTPRP, the “shrunken log2 fold change” value is -0.0362. Take RRIRDRPPRLPRPRPRPWYNPRP: the “shrunken log2 fold change” value is -0.102. Regarding RRIRERPPRLPRPRPRPSTSPRP, the “shrunken log2 fold change” value is -0.145. In the case of RRIRPRPPRLPRPRPRPFLCPRP, the “shrunken log2 fold change” value was -0.0669. For RRIRGRPPRLPRPRPRPSYMPRP the value was -0.0696; for RRIRFRPPRLPRPRPRPADIPRP, 0.131; for RRIRMRPPRLPRPRPRPACHPRP, 0.151. Turning to RRIRERPPRLPRPRPRPCRDPRP, the “shrunken log2 fold change” value stood at 0.0284. For RRIRTRPPRLPRPRPRPNTYPRP the value was -0.614; for RRIRLRPPRLPRPRPRPIAYPRP, -0.0152; for RRIRFRPPRLPRPRPRPKMQPRP, -0.0373. For RRIRARPPRLPRPRPRPICFPRP the value was 1.21. As for RRIRDRPPRLPRPRPRPGKIPRP, the figure is -0.176; as for RRIRFRPPRLPRPRPRPMYAPRP, -0.406; as for RRIRARPPRLPRPRPRPAYEPRP, 0.0749. As to RRIRSRPPRLPRPRPRPSHNPRP, the “shrunken log2 fold change” value is -0.784. For RRIRARPPRLPRPRPRPCMSPRP the value was 0.19; for RRIRTRPPRLPRPRPRPEELPRP, 0.0343. For RRIRFRPPRLPRPRPRPYPRPRP the value was -0.6. For RRIRLRPPRLPRPRPRPQWPPRP the value was 0.28. In the case of RRIRVRPPRLPRPRPRPNLEPRP, the “shrunken log2 fold change” value came out at 0.0543. For RRIRGRPPRLPRPRPRPPVIPRP, the “shrunken log2 fold change” value was -0.0488.

For the sequence RRIRIRPPRLPRPRPRPCSYPRP, the “shrunken log2 fold change” value was -0.176. Turning to RRIRVRPPRLPRPRPRPHKHPRP, the “shrunken log2 fold change” value is -0.483. As for RRIRSRPPRLPRPRPRPFYTPRP, the figure is -0.903.

On to RRIRSRPPRLPRPRPRPYMNPRP, for which the “shrunken log2 fold change” value is -0.479. Turning to RRIRQRPPRLPRPRPRPVSRPRP, the “shrunken log2 fold change” value was -0.00586. For RRIRKRPPRLPRPRPRPEPSPRP the value was 0.956; for RRIRFRPPRLPRPRPRPHEDPRP, 0.0846; for RRIRHRPPRLPRPRPRPWCHPRP, -0.00107. Consider RRIRIRPPRLPRPRPRPQYCPRP, for which the “shrunken log2 fold change” value was -0.15. For the sequence RRIRKRPPRLPRPRPRPNDTPRP, the “shrunken log2 fold change” value is -0.11.

RRIRDRPPRLPRPRPRPETSPRP: the “shrunken log2 fold change” value was -0.0166. As for RRIRARPPRLPRPRPRPYQVPRP, the figure is -0.327; as for RRIRVRPPRLPRPRPRPWWTPRP, -0.0418. For RRIRVRPPRLPRPRPRPVAVPRP the value was -0.05; for RRIRHRPPRLPRPRPRPKENPRP, -0.0597; for RRIRCRPPRLPRPRPRPCWPPRP, -0.0967. As for RRIRARPPRLPRPRPRPEIKPRP, the figure is 1.77; as for RRIRQRPPRLPRPRPRPENQPRP, 0.128. For the sequence RRIRQRPPRLPRPRPRPMMRPRP, the “shrunken log2 fold change” value is 0.109. For RRIRVRPPRLPRPRPRPRPTPRP the value was 0.268; for RRIRGRPPRLPRPRPRPAIWPRP, 0.396; for RRIRVRPPRLPRPRPRPFPDPRP, -0.345. Consider RRIRERPPRLPRPRPRPHMHPRP, for which the “shrunken log2 fold change” value is -0.687. For RRIRKRPPRLPRPRPRPNVNPRP the value was -0.0135; for RRIRERPPRLPRPRPRPKAPPRP, 0.124; for RRIRKRPPRLPRPRPRPAQTPRP, 0.246.

In the case of RRIRCRPPRLPRPRPRPGCCPRP, the “shrunken log2 fold change” value came to 0.137.

Turning to RRIRIRPPRLPRPRPRPQDTPRP, the “shrunken log2 fold change” value was -0.048.

In the case of RRIRQRPPRLPRPRPRPPASPRP, the “shrunken log2 fold change” value was 0.191.

For RRIRYRPPRLPRPRPRPLSPPRP, the “shrunken log2 fold change” value is -0.352. For RRIRIRPPRLPRPRPRPYSCPRP the value was -0.0992; for RRIRVRPPRLPRPRPRPCNSPRP, -0.116; for RRIRGRPPRLPRPRPRPSVIPRP, 0.159.

For RRIRLRPPRLPRPRPRPGNFPRP, the “shrunken log2 fold change” value is -0.122.

On to RRIRVRPPRLPRPRPRPKMKPRP, for which the “shrunken log2 fold change” value is 0.839. For RRIRRRPPRLPRPRPRPWWDPRP the value was -0.0777; for RRIRYRPPRLPRPRPRPELSPRP, 0.0544. Regarding RRIRLRPPRLPRPRPRPETGPRP, the “shrunken log2 fold change” value is -0.0316. As for RRIRIRPPRLPRPRPRPIWWPRP, the figure is 0.0713; as for RRIRVRPPRLPRPRPRPGECPRP, -0.145.

In the case of RRIRLRPPRLPRPRPRPNHQPRP, the “shrunken log2 fold change” value is -0.19. RRIRSRPPRLPRPRPRPQKSPRP: the “shrunken log2 fold change” value is -0.181. Turning to RRIRQRPPRLPRPRPRPGQHPRP, the “shrunken log2 fold change” value is -0.0301. Take RRIRDRPPRLPRPRPRPHERPRP: the “shrunken log2 fold change” value was 0.0603. With RRIRDRPPRLPRPRPRPVYCPRP, the “shrunken log2 fold change” value is -0.115. As for RRIRDRPPRLPRPRPRPPLIPRP, the figure is 0.129; as for RRIRARPPRLPRPRPRPSIMPRP, -0.178; as for RRIRLRPPRLPRPRPRPMDHPRP, -0.00264. As for RRIRFRPPRLPRPRPRPITIPRP, the figure is -0.195; as for RRIRRRPPRLPRPRPRPMWKPRP, -0.0119; as for RRIRMRPPRLPRPRPRPEHIPRP, -0.0225. For RRIRQRPPRLPRPRPRPASGPRP the value was -0.00438. As to RRIRPRPPRLPRPRPRPRYCPRP, the “shrunken log2 fold change” value is -0.191. For RRIRCRPPRLPRPRPRPRQGPRP the value was 0.436; for RRIRERPPRLPRPRPRPNKHPRP, -0.575; for RRIRPRPPRLPRPRPRPDEYPRP, -0.015.

Take RRIRSRPPRLPRPRPRPNPCPRP: the “shrunken log2 fold change” value was -0.574. On to RRIRVRPPRLPRPRPRPSPDPRP, for which the “shrunken log2 fold change” value was -0.226. As for RRIRSRPPRLPRPRPRPMWYPRP, the “shrunken log2 fold change” value was -0.0284. Consider RRIRWRPPRLPRPRPRPYLNPRP, for which the “shrunken log2 fold change” value is -0.777.

As to RRIRKRPPRLPRPRPRPEETPRP, the “shrunken log2 fold change” value worked out at 2.19.

Consider RRIRARPPRLPRPRPRPMVQPRP, for which the “shrunken log2 fold change” value was -0.081. For RRIRHRPPRLPRPRPRPLNEPRP the value was -0.124; for RRIRPRPPRLPRPRPRPILPPRP, 0.198. On to RRIRFRPPRLPRPRPRPSQSPRP, for which the “shrunken log2 fold change” value is -0.0504.

Consider RRIRHRPPRLPRPRPRPLSRPRP, for which the “shrunken log2 fold change” value was 0.172. For RRIRLRPPRLPRPRPRPSVQPRP the value was -0.57.
